{"source": "paper doi:10.1101/2024.05.31.596772", "about": "(2024)", "binders": {"B1": {"name": "GFP-CAMSAP3 CKK (domain or fragment)", "chain": "GPRLYKEPSAKSNKFIIHNALSHCCLAGKVNEPQKNRILEEIEKSKANHFLILFRDSSCQFRALYTLSGETEELSRLAGYGPRTVTPAMVEGIYKYNSDRKRFTQIPAKTMSMSVDAFTIQGHLWQSKKPTTPKK"}}, "biological_target": "microtubules (pig (purified from porcine brain))", "sequence (chain, as listed by the source, chain 1 of 2)": "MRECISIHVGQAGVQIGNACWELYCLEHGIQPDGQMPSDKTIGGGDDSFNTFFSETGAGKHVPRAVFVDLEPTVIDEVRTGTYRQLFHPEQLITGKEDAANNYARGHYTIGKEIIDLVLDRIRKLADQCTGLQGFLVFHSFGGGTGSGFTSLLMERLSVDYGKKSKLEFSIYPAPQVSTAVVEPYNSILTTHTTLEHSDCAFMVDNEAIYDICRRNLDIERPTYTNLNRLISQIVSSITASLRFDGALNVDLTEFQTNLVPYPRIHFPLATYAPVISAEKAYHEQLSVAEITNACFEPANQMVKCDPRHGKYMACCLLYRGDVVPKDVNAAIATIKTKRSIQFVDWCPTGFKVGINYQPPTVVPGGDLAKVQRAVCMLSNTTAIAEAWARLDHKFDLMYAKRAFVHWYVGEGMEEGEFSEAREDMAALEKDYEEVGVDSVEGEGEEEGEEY", "sequence (chain, as listed by the source, chain 2 of 2)": "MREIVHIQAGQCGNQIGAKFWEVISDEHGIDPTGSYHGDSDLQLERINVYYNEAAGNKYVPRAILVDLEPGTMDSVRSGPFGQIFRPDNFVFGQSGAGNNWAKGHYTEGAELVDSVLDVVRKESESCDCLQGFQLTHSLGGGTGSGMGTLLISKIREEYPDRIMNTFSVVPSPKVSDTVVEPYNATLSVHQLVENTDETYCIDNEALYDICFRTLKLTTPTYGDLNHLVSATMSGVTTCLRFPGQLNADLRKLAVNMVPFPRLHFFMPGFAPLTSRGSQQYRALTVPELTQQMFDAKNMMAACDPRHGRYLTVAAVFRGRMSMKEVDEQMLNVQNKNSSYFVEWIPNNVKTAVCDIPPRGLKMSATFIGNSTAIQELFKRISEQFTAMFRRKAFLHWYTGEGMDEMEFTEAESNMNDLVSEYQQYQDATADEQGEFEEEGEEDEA", "data": [{"binder": "B1", "values": [{"measurement": "Kd", "result": 2140, "unit": "nM"}]}]}
